Measured values as given in article PMC6071512.

Biological target: His6-RumM (ruminococcin-A lanthionine synthetase RumM) (Ruminococcus gnavus E1) (UniProt P83674)

His6-GFP-TEV-preRumA* (GFP fusion of the precursor peptide preRumA with Gly-1 replaced by Arg), co-expressed with RumM (from UniProt P83674 24-47)
fraction of His6-GFP-TEV-preRumA* complexed with His6-RumM that TEV protease digested (the free construct was completely digested), SDS-PAGE: 50%
